Reference: paper PMC4634812, “Characterization of proliferating cell nuclear antigen (PCNA) from pathogenic yeast Candida albicans and its functional analyses in S. Cerevisiae” (BMC Microbiology, 2015)

T1: Yeast DNA polymerase eta (ScPolη) (S. cerevisiae, UniProt Q04049 1-632)
T1 construct: DNA polymerase eta (Rad30) of S. cerevisiae; also called Rad30; ScRAD30; source: S. cerevisiae YRP654 (protease deficient), GAL-PGK-GST-ScRAD30 construct, purified by the same protocol as PCNA
T1 sequence (looked up): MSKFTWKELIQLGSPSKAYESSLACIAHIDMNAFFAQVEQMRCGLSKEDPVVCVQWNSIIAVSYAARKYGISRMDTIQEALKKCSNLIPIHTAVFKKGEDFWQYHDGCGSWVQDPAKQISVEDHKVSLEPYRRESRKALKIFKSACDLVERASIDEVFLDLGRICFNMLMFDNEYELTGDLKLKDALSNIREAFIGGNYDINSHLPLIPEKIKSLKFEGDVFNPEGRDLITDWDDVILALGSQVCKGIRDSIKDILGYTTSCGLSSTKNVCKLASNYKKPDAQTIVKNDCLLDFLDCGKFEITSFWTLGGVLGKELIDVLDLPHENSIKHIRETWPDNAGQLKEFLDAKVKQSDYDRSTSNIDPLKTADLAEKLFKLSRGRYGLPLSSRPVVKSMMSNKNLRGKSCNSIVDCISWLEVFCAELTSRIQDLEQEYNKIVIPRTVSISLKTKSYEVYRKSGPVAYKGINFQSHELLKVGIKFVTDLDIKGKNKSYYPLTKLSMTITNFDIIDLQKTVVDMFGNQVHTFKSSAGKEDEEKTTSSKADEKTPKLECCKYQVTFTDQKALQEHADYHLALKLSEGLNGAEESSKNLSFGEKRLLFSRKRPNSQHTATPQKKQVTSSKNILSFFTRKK


Assays:
[1] = biological target: Candida albicans PCNA G178S mutant (Candida albicans SC5314) (UniProt Q5AMN0); assay: cross-linking; about 20 μg protein in 20 mM HEPES pH 7.5 with glutaraldehyde, 5 min at 37 °C, then 12 % SDS-PAGE
[2] = biological target: T1, Yeast DNA polymerase eta (ScPolη); assay: SPR; details: both partners purified
[3] = biological target: the molecule itself; assay: native gel or EMSA; 12 % non-denaturing polyacrylamide gel, ~1 μg of each purified protein, Coomassie stain
[4] = biological target: the molecule itself; assay: cross-linking; about 20 μg protein in 20 mM HEPES pH 7.5 with glutaraldehyde, 5 min at 37 °C, then 12 % SDS-PAGE
[5] = biological target: T1, Yeast DNA polymerase eta (ScPolη); assay: SPR; Bio-Rad XPR 36; CaPCNA, ScPCNA or BSA (~350 RU) amine-coupled on a GLC chip; ScPolη injected at 25-500nM; 25 mM HEPES pH 7.5, 10 % glycerol, 200 mM sodium acetate, 8 mM magnesium acetate, 1 mM DTT, 0.005 % Tween-20, 0.2 mg/ml BSA; 20 °C; 1:1 Langmuir fit; details: both partners purified

Molecule	stoichiometry N [1]	Kd [2] [nM]	koff [2] [s⁻¹]	stoichiometry N [3]	stoichiometry N [4]	Kd [5] [nM]	koff [5] [s⁻¹]
Candida albicans PCNA G178S mutant (from UniProt Q5AMN0 1-259) (natural protein)	2	–	–	–	–	–	–
Candida albicans proliferating cell nuclear antigen (CaPCNA), wild type (natural protein, Candida albicans SC5314, UniProt Q5AMN0 1-259, looked up, PCNA (POL30) of Candida albicans SC5314, orf19.4616 of the Candida Genome Database, 259 amino acids; the orf was amplified from genomic DNA with primers from the start to the stop codon; A few residues of the Prescission site and the cloning site may remain at the N-terminus after cleavage; also called orf19.4616; CaO19.12086; source: E. coli BL21-DE3, purified (glutathione beads, eluted by …)) MLEGKFEEAALLKKVVEAIKDCVKKCNFNCSEHGITVQAVDDSRVLLVSLLIGQTSFSEYRCDRDVTLGIDLESFSKIIKSANNEDFLTLLAEDSPDQIMAILEEKQKEKISEYSLKLMDIDSEFLQIDDMEYDAVVNMPSSDFAKLVRDLKNLSESLRVVVTKDSVKFTSEGDSGSGSVILKPYTNLKNERESVTISLDDPVDLTFGLKYLNDIVKAATLSDVITIKLADKTPALFEFKMQSGGYLRFYLAPKFDDDE	–	10.6	0.000166	3	6	–	–
Saccharomyces cerevisiae PCNA (ScPCNA), wild type (natural protein, S. cerevisiae, PCNA (POL30) of S. cerevisiae; The cloning of the bacterial ScPCNA construct is not described; also called yeast PCNA; ScPol30; source: E. coli BL21-DE3, purified (glutathione beads, eluted by Prescission protease)) MLEAKFEEASLFKRIIDGFKDCVQLVNFQCKEDGIIAQAVDDSRVLLVSLEIGVEAFQEYRCDHPVTLGMDLTSLSKILRCGNNTDTLTLIADNTPDSIILLFEDTKKDRIAEYSLKLMDIDADFLKIEELQYDSTLSLPSSEFSKIVRDLSQLSDSINIMITKETIKFVADGDIGSGSVIIKPFVDMEHPETSIKLEMDQPVDLTFGAKYLLDIIKGSSLSDRVGIRLSSEAPALFQFDLKSGFLQFFLAPKFNDEE	–	–	–	3	–	80.1	0.00138
